Assay results reported in patent US10258699B2, “Angiopep and derivatives thereof for imaging amyloids” (University Of Science And Technology Of China, priority 2014, dated 2019).

How the values were obtained:
[1] = test system: amyloid deposits in APP transgenic mouse brain; assay: Fluorescent microscopy of APP transgenic mouse's brain sections after intravenous injection of the Cy5.5 conjugate; assay type: in vivo; settings: 13 mg/kg intravenous, brain removed after 30 minutes
Method: 30 minutes after intravenous administration (13 mg/kg), the mice were sacrificed, and then their brains were removed and frozen in liquid nitrogen. […] The brain was cut into sections of about 25 m in thickness using a frozen tissue microtome (Lecia CM1950). The sections were then placed on a fluorescent microscope (IX8, OLYMPUS) for observation and photography.

[2] = test system: APP transgenic mice's brains; settings: mouse, in vivo
Method: (§1) Optical in vivo imaging study was performed on IVIS imaging system, an optical imaging system from Caliper Life Sciences for imaging living body with an excitation filter set as Cy5.5, and emission spectrum band-pass filter as 640 nm. Before imaging, the mice were anaesthetized with a mixture gas of isoflurane and oxygen, and placed on an imaging plate with its face downward. White light photography (exposure time: 0.2 s) and near-infrared fluorescent imaging (exposure time: 5 s) were performed under the same field of vision (FOV) (FOV=12.5 cm, f/stop=1, Bin=1) at time points including before injection and several selected time points after intravenous injection. Each mouse received an injection dose of 13 mg/kg. White light photographs and near-infrared fluorescent images were superimposed to determine the size of intracranial portion. Finally, the imaging views were processed by using Living Image Software (Caliper Life Sciences).

[3] = test system: APP transgenic mice's brains; assay: In vivo near-infrared imaging of APP transgenic mouse after intravenous injection; settings: 13 mg/kg intravenous injection
Method: as §1

Aβ1-42 aggregates = Aβ1-42 aggregates (Homo sapiens, UniProt P05067); assay: biochemical
Aβ1-42 aggregates, sequence (P05067 672-713 limits assumed): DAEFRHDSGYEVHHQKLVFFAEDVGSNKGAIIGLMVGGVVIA
Method: Dissolving Aβ1-42 solid in PBS (PH 7.4) at a concentration of 0.25 mg/ml (55.38 uM), incubating in 37° C. water bath on a shaker for 42 h.
Preparing solutions (containing 10% DMF), containing the conjugate formed by angiopep-2 and FITC (10 uM) as well as Aβ1-42 aggregates (0, 5, 10 uM) or BSA (45 ug/mL), respectively; incubating the mixture solution at 37° C. for 30 minutes.
Preparing solutions (containing 10% DMF), containing the conjugate formed by angiopep-2 and FITC (0-3.75 uM) as well as Aβ1-42 aggregates (2.2 uM) or BSA (10 uM), respectively, incubating the mixture solution at 37° C. for 30 minutes.
Detecting the mixture solutions prepared above for their emission spectrum with fluorescence spectrophotometer, emission wavelength: 333 nm, maximum emission wavelength: 531 nm, in the range of 500-600 nm.
Plotting by using GraphPad Prism 5.0 (GraphPad Software, Inc., La Jolla, Calif., USA) and calculating equilibrium dissociation constant.

amyloid deposits in APP transgenic mouse brain, sequence (P05067 672-711 limits assumed): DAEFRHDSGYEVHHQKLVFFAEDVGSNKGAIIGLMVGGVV

Compound | labeling of amyloid deposits in brain in vivo [1] | time after which cleared from brain [2] | aggregation in brain (near-infrared imaging) ([3]; APP mice) | Kd (Aβ1-42 aggregates) | passing through BBB and aggregation in brain in vivo ([3]; APP transgenic mice)
conjugate formed by angiopep-2 and Cy5.5: angiopep-2 (TFFYGGSRGKRNNFKTEEY) linked N-terminally via Acp to Cy5.5; near-infrared imaging conjugate, MW 2880.24 Da | can bind to and label the amyloid deposits | 20 h | aggregated in APP mice's brains | – | –
C[C@@H](O)[C@H](NC(=O)CCCCCNC(=S)Nc1ccc2c(c1)C(=O)OC21c2ccc(O)cc2Oc2cc(O)ccc21)C(=O)N[C@@H](Cc1ccccc1)C(=O)N[C@@H](Cc1ccccc1)C(=O)N[C@@H](Cc1ccc(O)cc1)C(=O)NCC(=O)NCC(=O)N[C@@H](CO)C(=O)N[C@@H](CCCNC(=N)N)C(=O)NCC(=O)N[C@@H](CCCCN)C(=O)N[C@@H](CCCNC(=N)N)C(=O)N[C@@H](CC(N)=O)C(=O)N[C@@H](CC(N)=O)C(=O)N[C@@H](Cc1ccccc1)C(=O)N[C@@H](CCCCN)C(=O)N[C@H](C(=O)N[C@@H](CCC(=O)O)C(=O)N[C@@H](CCC(=O)O)C(=O)N[C@@H](Cc1ccc(O)cc1)C(=O)O)[C@@H](C)O [conjugate formed by angiopep-2 and FITC] | – | – | – | 676 nM | can pass through BBB and aggregate in APP transgenic mice's brains in vivo
